Measurements taken from patent US20250136677A1 (ZOETIS SERVICES, published 2025).
Where a chain is given by its changes, count along the chain named.

Assays:
[1] = biological target: T1, wildtype feline IL-31 protein (Feline_IL31_wildtype) (feline); experiment: cell-based or functional assay
T1 chain: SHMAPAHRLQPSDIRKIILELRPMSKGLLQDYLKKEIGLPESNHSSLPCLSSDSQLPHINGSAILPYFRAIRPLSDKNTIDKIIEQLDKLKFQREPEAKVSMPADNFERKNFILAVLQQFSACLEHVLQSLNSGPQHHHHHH

[2] = biological target: T2, mutant feline IL-31 15H05 protein (Feline_IL31_15H05_mutant) (feline); experiment: SPR (Biacore), IL-31 protein as surface capture; Biacore KD of Table 1, mutant IL-31 as surface capture; weak binding, about 78 times weaker than on wildtype feline
T2 construct: also called feline 15H05 mutant; 15H05 IL-31 mutant
T2 chain: T1 chain with P103A, D105A
Description: (§1) The affinity with which candidate mAbs bind canine and feline IL-31 was determined using surface plasmon resonance (SPR) on a Biacore system (Biocore Life Sciences (GE Healthcare), Uppsala, Sweden). To avoid affinity differences associated with differential surface preparation that can occur when immobilizing antibodies to surfaces; a strategy was employed where IL-31 was directly conjugated to the surface. Immobilization was obtained by amine coupling 5 μg/mL IL-31 using N-hydroxysuccinimide (NHS)/1-Ethyl-3-(3-dimethylaminopropyl) carbodiimide (EDC) chemistry. Chips were quenched with ethanolamine and the affinity with which all candidate mAbs bound to the immobilized IL-31 was evaluated. All curves were fit to a 1:1 model. […] Results for affinity measurements are described herein.
(§2) Table 1 below describes the results for biacore analysis using multiple species of IL-31 protein as a surface capture.

[3] = biological target: T3, equine IL-31 protein (Equine_IL31) (equine); experiment: SPR (Biacore), IL-31 protein as surface capture
T3 construct: Recombinant equine IL-31
T3 chain: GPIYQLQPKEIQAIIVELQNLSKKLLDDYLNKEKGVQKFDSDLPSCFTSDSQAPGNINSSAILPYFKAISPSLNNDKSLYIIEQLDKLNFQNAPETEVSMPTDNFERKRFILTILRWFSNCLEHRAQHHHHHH
Description: as §1, §2

[4] = biological target: T4, mutant feline IL-31 11E12 protein (Feline_IL31_11E12_mutant) (feline); experiment: SPR (Biacore), IL-31 protein as surface capture
T4 construct: also called feline 11E12 mutant; 11E12 IL-31 mutant
T4 chain: T1 chain with D81A, I84A
Description: as §1, §2

[5] = biological target: T1, wildtype feline IL-31 protein …; experiment: SPR (Biacore), IL-31 protein as surface capture
Description: as §1, §2

human IL-31 = biological target: T5, human IL-31 (human, UniProt Q6EBC2 24-164); experiment: SPR (Biacore), IL-31 surface, single antibody concentration
T5 sequence: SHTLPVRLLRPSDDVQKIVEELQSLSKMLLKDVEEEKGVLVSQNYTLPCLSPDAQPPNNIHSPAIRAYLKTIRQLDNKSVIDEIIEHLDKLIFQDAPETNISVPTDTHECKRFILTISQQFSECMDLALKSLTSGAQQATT

[6] = biological target: T6, canine IL-31 protein (Canine_IL31) (canine); experiment: SPR (Biacore), IL-31 protein as surface capture
T6 chain: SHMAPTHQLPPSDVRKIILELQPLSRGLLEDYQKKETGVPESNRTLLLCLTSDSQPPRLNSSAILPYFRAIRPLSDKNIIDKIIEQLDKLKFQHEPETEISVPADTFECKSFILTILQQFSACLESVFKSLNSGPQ

[7] = biological target: T6, canine IL-31 protein (Canine_IL31)
[8] = biological target: T6, canine IL-31 protein (Canine_IL31); experiment: SPR (Biacore), IL-31 on chip, 1:1 fit

B1: mouse anti IL-31 antibody 15H05 (antibody, mouse IgG1, kappa)
heavy: QVQLQQSAAELARPGASVKMSCKTSGYTFTSYTIHWIKQRPGQGLEWIGNINPTSGYTENNQRFKDKTTLTVDRSSNTAYLQLHSLTSEDSAVYFCARWGFKYDGEWSFDVWGAGTTVTVSSKTTPPSVYPLAPGSAAQTNSMVTLGCLVKGYFPEPVTVTWNSGSLSSGVHTFPAVLESDLYTLSSSVTVPSSPRPSETVTCNVAHPASSTKVDKKIVPRDCGCKPCICTVPEVSSVFIFPPKPKDVLTITLTPKVTCVVVDISKDDPEVQFSWFVDDVEVHTAQTQPREEQFNSTFRSVSELPIMHQDWLNGKEFKCRVNSAAFPAPIEKTISKTKGRPKAPQVYTIPPPKEQMAKDKVSLTCMITDFFPEDITVEWQWNGQPAENYKNTQPIMNTNGSYFVYSKLNVQKSNWEAGNTFTCSVLHEGLHNHHTEKSLSHSPGK
light: DIQMNQSPSSLSASLGDTITVTCRASQGISIWLSWYQQKPGNIPKVLINKASNLHIGVPPRFSGSGSGTHFTLTITSLQPEDIATYYCLQSQTYPLTFGGGTKLEINADAAPTVSIFPPSSEQLTSGGASVVCFLNNFYPKDINVKWKIDGSERQNGVLNSWTDQDSKDSTYSMSSTLTLTKDEYERHNSYTCEATHKTSTSPIVKSFNRNEC
notes: Mouse hybridoma antibody, IgG1 kappa; also called Mu-15H05; MU-15H05
[1]
  Inhibition of IL-31 induced pSTAT3 IC50 (µg/ml), Feline IL-31 on Feline FCWF-4 cells: 6 µg/ml
[2]
  Kd: 23.9 nM
[3]
  Kd: 0.306 nM
[4]
  Kd: 11.5 nM
[5]
  Kd: 0.306 nM
Human IL-31
  binding result: no binding
[6]
  Kd: 0.00191 nM
[7]
  IC50, inhibition of canine IL-31-induced STAT3 phosphorylation, feline FCWF4 cells: 25.7 µg/mL
[8]
  koff: 6.56e-07 s⁻¹
  kon: 135000 M⁻¹ s⁻¹
